In publication PMC314469, “Protein Interaction Networks by Proteome Peptide Scanning” (PLoS Biology, 2004):

How the values were obtained:
[1] = biological target: T1, amphyphisin SH3 (AMPH_HUMAN), P49418; assay: SPOT array
T1 chain: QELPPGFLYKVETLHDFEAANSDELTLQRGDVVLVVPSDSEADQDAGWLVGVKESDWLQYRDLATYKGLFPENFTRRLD

[2] = biological target: endophilin SH3 (SH3G2_HUMAN), Q99962; assay: SPOT array

Row | Binder | normalised SPOT signal, Boehringer light units (BLU); mean over the file's lines of this peptide [1] | normalised SPOT signal, Boehringer light units (BLU); mean over the file's lines of this peptide [2]
1 | VNVVFRRPLRPADP [Q96FY0 68-81] | 768 | 266
2 | VPLPPARPPTRDNP [Q13191 775-789] | 1730 | 592
3 | VHLKLRRPVTVPAG [Q9BT99 240-253] | 28 | 64.9
4 | VKLKIKRPYGRKSQ [O60281 820-833] | 30.3 | 32
5 | VLAELPRPRRPPLQ [Q9NSY0 101-114] | 596 | 244
6 | VLALPGKPPFLTQL [P05771 392-406] | 57.3 | 474
7 | VMASLRRPKRIIIR [P78527 3728-3741] | 743 | 177
8 | VNRGPKRPKVLQRG [Q9UDR8 470-483] | 9 | 142
9 | SLGLPSRPPSQLSG [Q8TBS2 64-78] | 42.4 | 101
10 | VLPPPPRPPQRRSR [BAC05199 62-76] | 23100 | 21900
11 | VLTALRRPARSSWH [Q8WW71 300-313] | 1860 | 395
12 | VLPKFPRPVRTQEQ [Q92543 889-902] | 475 | 303
13 | VPKPPPKPPSPPAP [P17405 180-194] | 71.9 | 352
14 | SISKPERPMKFLRE [P31321 38-51] | 609 | 8910
15 | VKLLIRRPESFGPA [Q15413 2218-2231] | 40.2 | 144
16 | VNLKLRRPSFRDDI [O00467 301-314] | 60.6 | 60.4
17 | SKKGFRRPSEKNQH [P17010 781-794] | 33.1 | 32
18 | VPQKPERPPLPPKP [Q96C88 96-110] | 2630 | 13800
19 | VLGVLRRPLEAPPE [Q03169 136-149] | 1.1 | 5.5
20 | VLAEIPRPLKRRGS [Q9Y290 36-49] | 138 | 205
21 | VKMQLRRPSDQEVS [Q04864 259-272] | 81.1 | 382

Row | Binder | normalised SPOT signal, Boehringer light units (BLU); mean over the file's lines of this peptide [1] | normalised SPOT signal, Boehringer light units (BLU); mean over the file's lines of this peptide [2]
22 | VLQHLRRPVALQLD [Q9HC29 785-798] | 43.5 | 58.9
23 | VPPRPPRPPETART [P52849 69-83] | 5100 | 5710
24 | VPPPPARPPPRSAR [Q8WY41 65-79] | 14700 | 11800
25 | VMARLSRPERPDLV [Q9HCS7 3-16] | 1410 | 1160
26 | VNIVPKKPPLLDRP [Q96NB9 30-44] | 34.8 | 114
27 | SKAYPKRPLLGLVL [Q9GZR7 380-393] | 12.5 | 385
28 | VPGDPRRPYPTDLE [Q9NPJ6 168-181] | 11.9 | 39.7
29 | VPMPIARPARQTSR [Q9Y6R4 202-215] | 9590 | 1680
30 | VLLKLRRPVVGSSE [Q14596 255-268] | 32.8 | 233
31 | VKIPPKRPPRKHIV [Q8WVK0 107-121] | 17500 | 14900
32 | VMQSLRRPSSSGSS [O60269 443-456] | 45.5 | 1190
33 | VPRDLRRPASLIGQ [O60503 967-980] | 25.8 | 19.5
34 | VLDFPRRPPWSYEM [Q96CT5 125-139] | 53.9 | 397
35 | VNRPLVRPQKRLSS [Q9BWX5 222-235] | 253 | 6270
36 | VLLPPPRPTRKRSL [Q9P2L7 767-780] | 8360 | 7360
37 | VPPGLRRPGPGTLY [P56945 374-387] | 41.5 | 43.6
38 | VNEGPPKPPTELEP [AAH32298 448-462] | 19.8 | 3.4
39 | VKPGLRRPPASPAL [Q05215 182-195] | 32.8 | 34.9
40 | VKRRPGRPRKSPLQ [Q9NR48 1846-1859] | 167 | 107
41 | VKKIPKKPPAPDPF [Q9UQN5 1344-1358] | 56.8 | 2740
42 | VPQKPERPPLPPEP [Q9H7F7 96-110] | 216 | 4660
